Laboratory results as given in patent US11142752B2, “Pullulanase mutant” (Jiangnan University, priority 2018, dated 2021).
Numbering of substitutions follows the chain as printed. In names and notes the source's numbering stands.

B1: Mutant F476V: Bacillus subtilis str. 168 pullulanase mutated at position 476 (F to V) (protein, UniProt C0SPA0 1-718, looked up, variant F476V)
Pullulanase: MVSIRRSFEAYVDDMNIITVLIPAEQKEIMTPPFRLETEITDFPLAVREEYSLEAKYKYVCVSDHPVTFGKIHCVRASSGHKTDLQIGAVIRTAAFDDEFYYDGELGAVYTADHTVFKVWAPAATSAAVKLSHPNKSGRTFQMTRLEKGVYAVTVTGDLHGYEYLFCICNNSEWMETVDQYAKAVTVNGEKGVVLRPDQMKWTAPLKPFSHPVDAVIYETHLRDFSIHENSGMINKGKYLALTETDTQTANGSSSGLAYVKELGVTHVELLPVNDFAGVDEEKPLDAYNWGYNPLHFFAPEGSYASNPHDPQTRKTELKQMINTLHQHGLRVILDVVFNHVYKRENSPFEKTVPGYFFRHDECGMPSNGTGVGNDIASERRMARKFIADCVVYWLEEYNVDGFRFDLLGILDIDTVLYMKEKATKAKPGILLFGEGWDLATPLPHEQKAALANAPRMPGIGFFNDMFRDAVKGNTVHLKATGFALGNGESAQAVMHGIAGSSGWKALAPIVPEPSQSINYVESHDNHTFWDKMSFALPQENDSRKRSRQRLAAAIILLAQGVPFIHSGQEFFRTKQGVENSYQSSDSINQLDWDRRETFKEDVHYIRRLISLRKAHPAFRLRSAADIQRHLECLTLKEHLIAYRLYDLDEVDEWKDIIVIHHASPDSVEWRLPNDIPYRLLCDPSGFQEDPTEIKKTVAVNGIGTVILYLASDLKSFA
B2: Mutant F476A: Bacillus subtilis str. 168 pullulanase mutated at position 476 (F to A) (protein, UniProt C0SPA0 1-718, looked up, variant F476A)
Pullulanase: B1 Pullulanase with V476A
B3: Mutant F476C: Bacillus subtilis str. 168 pullulanase mutated at position 476 (F to C) (protein, UniProt C0SPA0 1-718, looked up, variant F476C)
Pullulanase: B1 Pullulanase with V476C

tested on: pullulanase derived from Bacillus subtilis str. 168; experiment: Inhibitory effect of cyclodextrin on pullulanase enzyme activity (DNS method, pullulan substrate); type: biochemical; settings: Bacillus subtilis str. 168 pullulanase; inhibitor α-CD (0.1 mL of 10 mM cyclodextrin); 1% pullulan pH 6.0, 40° C., 30 min
Source text: 2. Measurement of Enzyme Activity of the Pullulanase:
A 3,5-dinitrosalicylic acid (DNS) method is adopted. The pullulanase catalyzes the hydrolysis of pullulan to produce reducing sugar under certain conditions, 3,5-dinitrosalicylic acid and the reducing sugar are reduced under thermal conditions to produce a brown-red amino complex, the color depth is directly proportional to the amount of the reducing sugar within a certain range, and the measurement can be performed at the wavelength of 540 nm so as to calculate the enzyme activity. Enzyme activity unit definition: the amount of the enzyme that catalyzes the production of the reducing sugar equivalent to 1 μmol of glucose reducing power per minute is defined as one activity unit.
3. Measurement of the Enzyme Activity Comprises the Following Steps:
A. preheating: putting 1 mL of a 1% pullulan solution of which the pH value is 6.0 and 0.1 mL of a buffer solution of which the pH value is 6.0 in a centrifuge tube, and performing thermal insulation for 10 min on a water bath of 40° C.;
B. reaction: adding 0.1 mL (10 U) of an enzyme solution, performing shaking and mixing uniformly, performing accurate timing for 30 min, adding 1.5 mL of DNS for stopping reaction, performing treatment in a boiling water bath for 10 min, and performing instant cooling; and
C. measurement: measuring the light absorption value under the condition of 540 nm, and calculating the activity.
Reduction of the Inhibitory Effect of Enzyme Activity Characterization:
A. preheating: putting 1 mL of the 1% pullulan solution of which the pH value is 6.0 and 0.1 mL of 10 mM cyclodextrin in the centrifuge tube, and performing thermal insulation for 10 min on the water bath of 40° C.;
B. reaction: adding 0.1 mL (10 U) of the enzyme solution, performing shaking and mixing uniformly, performing accurate timing for 30 min, adding 1.5 mL of DNS for stopping reaction, performing treatment in the boiling water bath for 10 min, and performing instant cooling; and […]

Q: For B1, which “Reduction rate of specific enzyme activity in existence of α-CD” value (“Reduction rate … of α-CD” for short) is on record?
A: 7.2%

Q: Which “Reduction rate … of α-CD” value does the source give for B2 here?
A: 3.5%

Q: B3 was tested. Which “Reduction rate … of α-CD” value did it give?
A: 4.3%

same assay, conditions: Bacillus subtilis str. 168 pullulanase; inhibitor β-CD (0.1 mL of 10 mM cyclodextrin); 1% pullulan pH 6.0, 40° C., 30 min

Q: For B1, which “Reduction rate of specific enzyme activity in existence of β-CD” value (shortened to “Reduction rate … of β-CD”) is on record?
A: 16.7%

Q: With B2 as the molecule, how does the “Reduction rate … of β-CD” value read?
A: 5.6%

Q: With B3 as the molecule, how does the “Reduction rate … of β-CD” value read?
A: 17.2%

same assay, conditions: Bacillus subtilis str. 168 pullulanase; inhibitor γ-CD (0.1 mL of 10 mM cyclodextrin); 1% pullulan pH 6.0, 40° C., 30 min

Q: For B1, which “Reduction rate of specific enzyme activity in existence of γ-CD” value (“Reduction rate … of γ-CD” below) is on record?
A: 12.3%

Q: B2 was tested. Which “Reduction rate … of γ-CD” value did it give?
A: 5.8%

Q: For B3, which “Reduction rate … of γ-CD” value is on record?
A: 5.6%
